Reference: the supplement of paper PMC9112550, “Optimization of the antimicrobial peptide Bac7 by deep mutational scanning” (BMC Biology, 2022)

Test system: Escherichia coli TOP10
Experiment: shrunken log2 fold change of peptide-encoding DNA abundance (4.5 h post-induction vs induction); higher = less antimicrobial activity (less host growth inhibition)
Details: time post-induction: 4.5 h; library: site-saturation at positions 5, 18, 19, 20
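Note: peptides expressed intracellularly from a pBAD plasmid library in pooled LB shake-flask culture, induced with 0.3% L-arabinose, DNA abundance read by NGS, three biological replicates, DESeq2 with apeglm shrinkage.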

Sequence	shrunken log2 fold change
RRIRDRPPRLPRPRPRPSVDPRP	0.0621
RRIRVRPPRLPRPRPRPHRHPRP	-0.357
RRIRQRPPRLPRPRPRPRPMPRP	0.303
RRIRWRPPRLPRPRPRPWHIPRP	0.106
RRIRWRPPRLPRPRPRPGADPRP	0.839
RRIRGRPPRLPRPRPRPNDGPRP	0.0995
RRIRRRPPRLPRPRPRPVEVPRP	0.057
RRIRCRPPRLPRPRPRPIQFPRP	-0.131
RRIRIRPPRLPRPRPRPWILPRP	-0.349
RRIRRRPPRLPRPRPRPPRWPRP	0.986
RRIRNRPPRLPRPRPRPSRDPRP	-0.129
RRIRMRPPRLPRPRPRPCARPRP	0.343
RRIRTRPPRLPRPRPRPDYHPRP	-0.699
RRIRYRPPRLPRPRPRPISIPRP	-0.134
RRIRERPPRLPRPRPRPQLYPRP	-0.441
RRIRERPPRLPRPRPRPTHHPRP	-0.0607
RRIRHRPPRLPRPRPRPSAYPRP	-0.562
RRIRHRPPRLPRPRPRPKHIPRP	-0.413
RRIRWRPPRLPRPRPRPGAFPRP	0.3
RRIRQRPPRLPRPRPRPNVYPRP	-0.222
RRIRVRPPRLPRPRPRPYHYPRP	-1.93

Sequence	shrunken log2 fold change
RRIRCRPPRLPRPRPRPCPLPRP	-0.433
RRIRDRPPRLPRPRPRPIQLPRP	0.0401
RRIRNRPPRLPRPRPRPMTRPRP	-0.386
RRIRRRPPRLPRPRPRPCRSPRP	-0.03
RRIRSRPPRLPRPRPRPEDIPRP	-0.0081
RRIRGRPPRLPRPRPRPWDGPRP	0.486
RRIRFRPPRLPRPRPRPKGMPRP	-0.243
RRIRNRPPRLPRPRPRPNRGPRP	0.0523
RRIRFRPPRLPRPRPRPCNAPRP	-0.23
RRIRVRPPRLPRPRPRPVCAPRP	0.413
RRIRWRPPRLPRPRPRPSINPRP	-0.0638
RRIRSRPPRLPRPRPRPESPPRP	0.32
RRIRNRPPRLPRPRPRPSCCPRP	-0.318
RRIRTRPPRLPRPRPRPEDVPRP	-0.0588
RRIRYRPPRLPRPRPRPWWDPRP	-0.266
RRIRVRPPRLPRPRPRPSTQPRP	-0.0637
RRIRARPPRLPRPRPRPAGVPRP	0.45
RRIRGRPPRLPRPRPRPAQDPRP	0.836
RRIRTRPPRLPRPRPRPANSPRP	-0.119
RRIRGRPPRLPRPRPRPDRLPRP	-0.00118
RRIRWRPPRLPRPRPRPYCNPRP	-0.455

Sequence	shrunken log2 fold change
RRIRSRPPRLPRPRPRPDENPRP	0.11
RRIRRRPPRLPRPRPRPQGIPRP	-0.00228
RRIRPRPPRLPRPRPRPLLVPRP	0.1
RRIRWRPPRLPRPRPRPSIWPRP	-0.353
RRIRMRPPRLPRPRPRPHGHPRP	0.256
RRIRERPPRLPRPRPRPPPQPRP	0.553
RRIRQRPPRLPRPRPRPDSIPRP	-0.00697
RRIRKRPPRLPRPRPRPHFQPRP	0.0821
RRIRGRPPRLPRPRPRPTNLPRP	-0.0172
RRIRTRPPRLPRPRPRPQTVPRP	-0.216
RRIRKRPPRLPRPRPRPNPGPRP	0.155
RRIRRRPPRLPRPRPRPMGQPRP	0.267
RRIRWRPPRLPRPRPRPGYVPRP	-0.215
RRIRERPPRLPRPRPRPANMPRP	-0.19
RRIRRRPPRLPRPRPRPPIVPRP	-0.00408
RRIRKRPPRLPRPRPRPSDKPRP	-0.41
RRIRMRPPRLPRPRPRPCFIPRP	-0.496
RRIRWRPPRLPRPRPRPHGKPRP	0.00196
RRIRSRPPRLPRPRPRPCHDPRP	-0.105
RRIRKRPPRLPRPRPRPNCVPRP	0.109
RRIRLRPPRLPRPRPRPCYTPRP	-0.525
